Article PMC5562721

Target: Recombinant Ebola virus (EBOV) glycoprotein (Ebola virus (Zaire ebolavirus)) (UniProt Q05320)
Assay: SEC + cross-linking

Recombinant Ebola virus (EBOV) glycoprotein (from UniProt Q05320) (natural protein)
stoichiometry N: 3
